{"source": "patent US4285932A", "about": "“Enzyme derivatives for use in the treatment of venous thrombosis” (Beecham Group Limited, priority 1978, dated 1981)", "molecules": {"B1": {"name": "3,3 Dimethylacryloyl: human plasmin, active site serine blocked by 3,3-dimethylacryloyl (acylating agent of Example 4) (protein, UniProt P00747 20-580; P00747 581-810, looked up)", "Plasmin heavy chain A": "EPLDDYVNTQGASLFSVTKKQLGAGSIEECAAKCEEDEEFTCRAFQYHSKEQQCVIMAENRKSSIIIRMRDVVLFEKKVYLSECKTGNGKNYRGTMSKTKNGITCQKWSSTSPHRPRFSPATHPSEGLEENYCRNPDNDPQGPWCYTTDPEKRYDYCDILECEEECMHCSGENYDGKISKTMSGLECQAWDSQSPHAHGYIPSKFPNKNLKKNYCRNPDRELRPWCFTTDPNKRWELCDIPRCTTPPPSSGPTYQCLKGTGENYRGNVAVTVSGHTCQHWSAQTPHTHNRTPENFPCKNLDENYCRNPDGKRAPWCHTTNSQVRWEYCKIPSCDSSPVSTEQLAPTAPPELTPVVQDCYHGDGQSYRGTSSTTTTGKKCQSWSSMTPHRHQKTPENYPNAGLTMNYCRNPDADKGPWCFTTDPSVRWEYCNLKKCSGTEASVVAPPPVVLLPDVETPSEEDCMFGNGKGYRGKRATTVTGTPCQDWAAQEPHRHSIFTPETNPRAGLEKNYCRNPDGDVGGPWCYTTNPRKLYDYCDVPQCAAPSFDCGKPQVEPKKCPGR", "Plasmin light chain B": "VVGGCVAHPHSWPWQVSLRTRFGMHFCGGTLISPEWVLTAAHCLEKSPRPSSYKVILGAHQEVNLEPHVQEIEVSRLFLEPTRKDIALLKLSSPAVITDKVIPACLPSPNYVVADRTECFITGWGETQGTFGAGLLKEAQLPVIENKVCNRYEFLNGRVQSTELCAGHLAGGTDSCQGDSGGPLVCFEKDKYILQGVTSWGLGCARPNKPGVYVRVSRFVTWIEGVMRNN", "modifications": "plasmin 3,3-dimethylacryloyl acylated active site"}, "B2": {"name": "Acetylsalicycloyl: human plasmin, active site serine blocked by acetylsalicyloyl (acylating agent of Example 7) (protein, UniProt P00747 20-580; P00747 581-810, looked up)", "Plasmin heavy chain A": "EPLDDYVNTQGASLFSVTKKQLGAGSIEECAAKCEEDEEFTCRAFQYHSKEQQCVIMAENRKSSIIIRMRDVVLFEKKVYLSECKTGNGKNYRGTMSKTKNGITCQKWSSTSPHRPRFSPATHPSEGLEENYCRNPDNDPQGPWCYTTDPEKRYDYCDILECEEECMHCSGENYDGKISKTMSGLECQAWDSQSPHAHGYIPSKFPNKNLKKNYCRNPDRELRPWCFTTDPNKRWELCDIPRCTTPPPSSGPTYQCLKGTGENYRGNVAVTVSGHTCQHWSAQTPHTHNRTPENFPCKNLDENYCRNPDGKRAPWCHTTNSQVRWEYCKIPSCDSSPVSTEQLAPTAPPELTPVVQDCYHGDGQSYRGTSSTTTTGKKCQSWSSMTPHRHQKTPENYPNAGLTMNYCRNPDADKGPWCFTTDPSVRWEYCNLKKCSGTEASVVAPPPVVLLPDVETPSEEDCMFGNGKGYRGKRATTVTGTPCQDWAAQEPHRHSIFTPETNPRAGLEKNYCRNPDGDVGGPWCYTTNPRKLYDYCDVPQCAAPSFDCGKPQVEPKKCPGR", "Plasmin light chain B": "VVGGCVAHPHSWPWQVSLRTRFGMHFCGGTLISPEWVLTAAHCLEKSPRPSSYKVILGAHQEVNLEPHVQEIEVSRLFLEPTRKDIALLKLSSPAVITDKVIPACLPSPNYVVADRTECFITGWGETQGTFGAGLLKEAQLPVIENKVCNRYEFLNGRVQSTELCAGHLAGGTDSCQGDSGGPLVCFEKDKYILQGVTSWGLGCARPNKPGVYVRVSRFVTWIEGVMRNN", "modifications": "plasmin acetylsalicyloyl acylated active site"}, "B3": {"name": "N-methyl-p-guanidinobenzoyl: human plasmin, active site serine blocked by N-methyl-p-guanidinobenzoyl (protein, UniProt P00747 20-580; P00747 581-810, looked up)", "Plasmin heavy chain A": "EPLDDYVNTQGASLFSVTKKQLGAGSIEECAAKCEEDEEFTCRAFQYHSKEQQCVIMAENRKSSIIIRMRDVVLFEKKVYLSECKTGNGKNYRGTMSKTKNGITCQKWSSTSPHRPRFSPATHPSEGLEENYCRNPDNDPQGPWCYTTDPEKRYDYCDILECEEECMHCSGENYDGKISKTMSGLECQAWDSQSPHAHGYIPSKFPNKNLKKNYCRNPDRELRPWCFTTDPNKRWELCDIPRCTTPPPSSGPTYQCLKGTGENYRGNVAVTVSGHTCQHWSAQTPHTHNRTPENFPCKNLDENYCRNPDGKRAPWCHTTNSQVRWEYCKIPSCDSSPVSTEQLAPTAPPELTPVVQDCYHGDGQSYRGTSSTTTTGKKCQSWSSMTPHRHQKTPENYPNAGLTMNYCRNPDADKGPWCFTTDPSVRWEYCNLKKCSGTEASVVAPPPVVLLPDVETPSEEDCMFGNGKGYRGKRATTVTGTPCQDWAAQEPHRHSIFTPETNPRAGLEKNYCRNPDGDVGGPWCYTTNPRKLYDYCDVPQCAAPSFDCGKPQVEPKKCPGR", "Plasmin light chain B": "VVGGCVAHPHSWPWQVSLRTRFGMHFCGGTLISPEWVLTAAHCLEKSPRPSSYKVILGAHQEVNLEPHVQEIEVSRLFLEPTRKDIALLKLSSPAVITDKVIPACLPSPNYVVADRTECFITGWGETQGTFGAGLLKEAQLPVIENKVCNRYEFLNGRVQSTELCAGHLAGGTDSCQGDSGGPLVCFEKDKYILQGVTSWGLGCARPNKPGVYVRVSRFVTWIEGVMRNN", "modifications": "plasmin N-methyl-p-guanidinobenzoyl acylated active site"}, "B4": {"name": "p-Acetamidobenzoyl: human plasmin, active site serine blocked by p-acetamidobenzoyl (acylating agent of Example 18) (protein, UniProt P00747 20-580; P00747 581-810, looked up)", "Plasmin heavy chain A": "EPLDDYVNTQGASLFSVTKKQLGAGSIEECAAKCEEDEEFTCRAFQYHSKEQQCVIMAENRKSSIIIRMRDVVLFEKKVYLSECKTGNGKNYRGTMSKTKNGITCQKWSSTSPHRPRFSPATHPSEGLEENYCRNPDNDPQGPWCYTTDPEKRYDYCDILECEEECMHCSGENYDGKISKTMSGLECQAWDSQSPHAHGYIPSKFPNKNLKKNYCRNPDRELRPWCFTTDPNKRWELCDIPRCTTPPPSSGPTYQCLKGTGENYRGNVAVTVSGHTCQHWSAQTPHTHNRTPENFPCKNLDENYCRNPDGKRAPWCHTTNSQVRWEYCKIPSCDSSPVSTEQLAPTAPPELTPVVQDCYHGDGQSYRGTSSTTTTGKKCQSWSSMTPHRHQKTPENYPNAGLTMNYCRNPDADKGPWCFTTDPSVRWEYCNLKKCSGTEASVVAPPPVVLLPDVETPSEEDCMFGNGKGYRGKRATTVTGTPCQDWAAQEPHRHSIFTPETNPRAGLEKNYCRNPDGDVGGPWCYTTNPRKLYDYCDVPQCAAPSFDCGKPQVEPKKCPGR", "Plasmin light chain B": "VVGGCVAHPHSWPWQVSLRTRFGMHFCGGTLISPEWVLTAAHCLEKSPRPSSYKVILGAHQEVNLEPHVQEIEVSRLFLEPTRKDIALLKLSSPAVITDKVIPACLPSPNYVVADRTECFITGWGETQGTFGAGLLKEAQLPVIENKVCNRYEFLNGRVQSTELCAGHLAGGTDSCQGDSGGPLVCFEKDKYILQGVTSWGLGCARPNKPGVYVRVSRFVTWIEGVMRNN", "modifications": "plasmin p-acetamidobenzoyl acylated active site"}, "B5": {"name": "O-Anisoyl: human plasmin, active site serine blocked by o-anisoyl (acylating agent of Example 15) (protein, UniProt P00747 20-580; P00747 581-810, looked up)", "Plasmin heavy chain A": "EPLDDYVNTQGASLFSVTKKQLGAGSIEECAAKCEEDEEFTCRAFQYHSKEQQCVIMAENRKSSIIIRMRDVVLFEKKVYLSECKTGNGKNYRGTMSKTKNGITCQKWSSTSPHRPRFSPATHPSEGLEENYCRNPDNDPQGPWCYTTDPEKRYDYCDILECEEECMHCSGENYDGKISKTMSGLECQAWDSQSPHAHGYIPSKFPNKNLKKNYCRNPDRELRPWCFTTDPNKRWELCDIPRCTTPPPSSGPTYQCLKGTGENYRGNVAVTVSGHTCQHWSAQTPHTHNRTPENFPCKNLDENYCRNPDGKRAPWCHTTNSQVRWEYCKIPSCDSSPVSTEQLAPTAPPELTPVVQDCYHGDGQSYRGTSSTTTTGKKCQSWSSMTPHRHQKTPENYPNAGLTMNYCRNPDADKGPWCFTTDPSVRWEYCNLKKCSGTEASVVAPPPVVLLPDVETPSEEDCMFGNGKGYRGKRATTVTGTPCQDWAAQEPHRHSIFTPETNPRAGLEKNYCRNPDGDVGGPWCYTTNPRKLYDYCDVPQCAAPSFDCGKPQVEPKKCPGR", "Plasmin light chain B": "VVGGCVAHPHSWPWQVSLRTRFGMHFCGGTLISPEWVLTAAHCLEKSPRPSSYKVILGAHQEVNLEPHVQEIEVSRLFLEPTRKDIALLKLSSPAVITDKVIPACLPSPNYVVADRTECFITGWGETQGTFGAGLLKEAQLPVIENKVCNRYEFLNGRVQSTELCAGHLAGGTDSCQGDSGGPLVCFEKDKYILQGVTSWGLGCARPNKPGVYVRVSRFVTWIEGVMRNN", "modifications": "plasmin o-anisoyl acylated active site"}, "B6": {"name": "p-Anisoyl Human Plasmin (protein, UniProt P00747 20-580; P00747 581-810, looked up)", "Plasmin heavy chain A": "EPLDDYVNTQGASLFSVTKKQLGAGSIEECAAKCEEDEEFTCRAFQYHSKEQQCVIMAENRKSSIIIRMRDVVLFEKKVYLSECKTGNGKNYRGTMSKTKNGITCQKWSSTSPHRPRFSPATHPSEGLEENYCRNPDNDPQGPWCYTTDPEKRYDYCDILECEEECMHCSGENYDGKISKTMSGLECQAWDSQSPHAHGYIPSKFPNKNLKKNYCRNPDRELRPWCFTTDPNKRWELCDIPRCTTPPPSSGPTYQCLKGTGENYRGNVAVTVSGHTCQHWSAQTPHTHNRTPENFPCKNLDENYCRNPDGKRAPWCHTTNSQVRWEYCKIPSCDSSPVSTEQLAPTAPPELTPVVQDCYHGDGQSYRGTSSTTTTGKKCQSWSSMTPHRHQKTPENYPNAGLTMNYCRNPDADKGPWCFTTDPSVRWEYCNLKKCSGTEASVVAPPPVVLLPDVETPSEEDCMFGNGKGYRGKRATTVTGTPCQDWAAQEPHRHSIFTPETNPRAGLEKNYCRNPDGDVGGPWCYTTNPRKLYDYCDVPQCAAPSFDCGKPQVEPKKCPGR", "Plasmin light chain B": "VVGGCVAHPHSWPWQVSLRTRFGMHFCGGTLISPEWVLTAAHCLEKSPRPSSYKVILGAHQEVNLEPHVQEIEVSRLFLEPTRKDIALLKLSSPAVITDKVIPACLPSPNYVVADRTECFITGWGETQGTFGAGLLKEAQLPVIENKVCNRYEFLNGRVQSTELCAGHLAGGTDSCQGDSGGPLVCFEKDKYILQGVTSWGLGCARPNKPGVYVRVSRFVTWIEGVMRNN", "modifications": "Plasmin active-site p-anisoyl acylated", "notes": "human plasmin acylated at the catalytic site with p-amidinophenyl p'anisate"}}}
{"test_system": "Human Plasmin", "test": "Deacylation (hydrolysis) of active-site blocked human plasmin, pseudo-first order rate constant followed by regain of activity on chromogenic substrate S-2251", "assay_type": "biochemical", "settings": "active site serine substituted human plasmin; pH 7.4, 37° C.", "experimental": "(§1) The pseudo-first order rate constant is determined by hydrolysing the enzyme derivative under physiological conditions i.e. in isotonic aqueous media at pH 7.4 and at 37° C. At regular intervals aliquots are withdrawn and incubated with a chromogenic or fluorogenic protease substrate such as S-2251 (H-D-Val-Leu-Lys-p-nitroanilide 2HCl) and the rate of conversion of the substrate measured.\n(§2) The hydrolysis is followed until such time as the rate of conversion of substrate reaches a maximum. The rate constant k is then calculated by plotting: […]\n(§3) loge (1-^At /Amax) against t\n(§4) where Amax the maximum rate at which an aliquot converts substrate and At is the rate at which an aliquot converts substrate at time t.", "units": {"Deacylation rate, Human Plasmin K sec^-1 × 10^4": "sec^-1 × 10^4"}}
{"molecule": "B1", "Deacylation rate, Human Plasmin K sec^-1 × 10^4": 0.69}
{"molecule": "B2", "Deacylation rate, Human Plasmin K sec^-1 × 10^4": 4.70}
{"molecule": "B3", "Deacylation rate, Human Plasmin K sec^-1 × 10^4": 2.0}
{"molecule": "B4", "Deacylation rate, Human Plasmin K sec^-1 × 10^4": 2.70}
{"molecule": "B5", "Deacylation rate, Human Plasmin K sec^-1 × 10^4": 1.82}
{"test_system": "Human Plasmin", "test": "Deacylation (hydrolysis) of active-site blocked human plasmin, pseudo-first order rate constant followed by regain of activity on chromogenic substrate S-2251", "assay_type": "biochemical", "settings": "conditions specified for deacylation (isotonic aqueous media, pH 7.4, 37° C.)", "experimental": "as §1, §2, §3, §4"}
{"molecule": "B6", "time for quantitative reactivation to free plasmin": "approximately two"}
